Measured values taken from IntAct's records for PubMed 16785445.

B1: Interferon-induced, double-stranded RNA-activated protein kinase (Homo sapiens), P19525 (parent)
chain: MAGDLSAGFFMEELNTYRQKQGVVLKYQELPNSGPPHDRRFTFQVIIDGREFPEGEGRSKKEAKNAAAKLAVEILNKEKKAVSPLLLTTTNSSEGLSMGNYIGLINRIAQKKRLTVNYEQCASGVHGPEGFHYKCKMGQKEYSIGTGSTKQEAKQLAAKLAYLQILSEETSVKSDYLSSGSFATTCESQSNSLVTSTLASESSSEGDFSADTSEINSNSDSLNSSSLLMNGLRNNQRKAKRSLAPRFDLPDMKETKYTVDKRFGMDFKEIELIGSGGFGQVFKAKHRIDGKTYVIKRVKYNNEKAEREVKALAKLDHVNIVHYNGCWDGFDYDPETSDDSLESSDYDPENSKNSSRSKTKCLFIQMEFCDKGTLEQWIEKRRGEKLDKVLALELFEQITKGVDYIHSKKLIHRDLKPSNIFLVDTKQVKIGDFGLVTSLKNDGKRTRSKGTLRYMSPEQISSQDYGKEVDLYALGLILAELLHVCDTAFETSKFFTDLRDGIISDIFDKKEKTLLQKLLSKKPEDRPNTSEILRTLTVWKKSPEKNERHTC
partner: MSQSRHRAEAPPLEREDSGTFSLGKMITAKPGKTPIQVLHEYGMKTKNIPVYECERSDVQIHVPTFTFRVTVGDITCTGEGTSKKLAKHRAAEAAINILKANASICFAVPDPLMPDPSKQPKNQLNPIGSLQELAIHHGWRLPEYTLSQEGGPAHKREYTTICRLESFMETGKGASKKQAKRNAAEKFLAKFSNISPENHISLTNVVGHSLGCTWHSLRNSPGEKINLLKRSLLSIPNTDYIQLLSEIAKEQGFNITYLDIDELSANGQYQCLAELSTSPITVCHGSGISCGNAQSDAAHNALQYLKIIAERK

Variants of: B1
Settings: with PRKRA

Variant | effect of a mutation on the interaction
MAGDLSAGFFMEELNTYRQKQGVVLKYQELPNSGPPHDRRFTFQVIIDGREFPEGEGRSKKEAKNAAAKLAVEILNKEKKAVSPLLLTTTNSSEGLSMGNYIGLINRIAQKKRLTVNYEQCASGVHGPEGFHYKCKMGQKEYSIGTGSTKQEAKQLAAKLAYLQILSEETSVKSDYLSSGSFATTCESQSNSLVTSTLASESSSEGDFSADTSEINSNSDSLNSSSLLMNGLRNNQRKAKRSLAPRFDLPDMKETKYTVDKRFGMDFKEIELIGSGGFGQVFKAKHRIDGKTYVIKRVKYNNEKAEREVKALAKLDHVNIVHYNGCWAGFDYDPETSDDSLESSDYDPENSKNSSRSKTKCLFIQMEFCDKGTLEQWIEKRRGEKLDKVLALELFEQITKGVDYIHSKKLIHRDLKPSNIFLVDTKQVKIGDFGLVTSLKNDGKRTRSKGTLRYMSPEQISSQDYGKEVDLYALGLILAELLHVCDTAFETSKFFTDLRDGIISDIFDKKEKTLLQKLLSKKPEDRPNTSEILRTLTVWKKSPEKNERHTC [D328A] | disrupting interaction strength
MAGDLSAGFFMEELNTYRQKQGVVLKYQELPNSGPPHDRRFTFQVIIDGREFPEGEGRSKKEAKNAAAKLAVEILNKEKKAVSPLLLTTTNSSEGLSMGNYIGLINRIAQKKRLTVNYEQCASGVHGPEGFHYKCKMGQKEYSIGTGSTKQEAKQLAAKLAYLQILSEETSVKSDYLSSGSFATTCESQSNSLVTSTLASESSSEGDFSADTSEINSNSDSLNSSSLLMNGLRNNQRKAKRSLAPRFDLPDMKETKYTVDKRFGMDFKEIELIGSGGFGQVFKAKHRIDGKTYVIKRVKYNNEKAEREVKALAKLDHVNIVHYNGCWDAFDYDPETSDDSLESSDYDPENSKNSSRSKTKCLFIQMEFCDKGTLEQWIEKRRGEKLDKVLALELFEQITKGVDYIHSKKLIHRDLKPSNIFLVDTKQVKIGDFGLVTSLKNDGKRTRSKGTLRYMSPEQISSQDYGKEVDLYALGLILAELLHVCDTAFETSKFFTDLRDGIISDIFDKKEKTLLQKLLSKKPEDRPNTSEILRTLTVWKKSPEKNERHTC [G329A] | disrupting interaction strength

Next, values leading:

effect of a mutation on the interaction | Variant
disrupting interaction strength | MAGDLSAGFFMEELNTYRQKQGVVLKYQELPNSGPPHDRRFTFQVIIDGREFPEGEGRSKKEAKNAAAKLAVEILNKEKKAVSPLLLTTTNSSEGLSMGNYIGLINRIAQKKRLTVNYEQCASGVHGPEGFHYKCKMGQKEYSIGTGSTKQEAKQLAAKLAYLQILSEETSVKSDYLSSGSFATTCESQSNSLVTSTLASESSSEGDFSADTSEINSNSDSLNSSSLLMNGLRNNQRKAKRSLAPRFDLPDMKETKYTVDKRFGMDFKEIELIGSGGFGQVFKAKHRIDGKTYVIKRVKYNNEKAEREVKALAKLDHVNIVHYNGCWDGFDADPETSDDSLESSDYDPENSKNSSRSKTKCLFIQMEFCDKGTLEQWIEKRRGEKLDKVLALELFEQITKGVDYIHSKKLIHRDLKPSNIFLVDTKQVKIGDFGLVTSLKNDGKRTRSKGTLRYMSPEQISSQDYGKEVDLYALGLILAELLHVCDTAFETSKFFTDLRDGIISDIFDKKEKTLLQKLLSKKPEDRPNTSEILRTLTVWKKSPEKNERHTC [Y332A]
disrupting interaction strength | MAGDLSAGFFMEELNTYRQKQGVVLKYQELPNSGPPHDRRFTFQVIIDGREFPEGEGRSKKEAKNAAAKLAVEILNKEKKAVSPLLLTTTNSSEGLSMGNYIGLINRIAQKKRLTVNYEQCASGVHGPEGFHYKCKMGQKEYSIGTGSTKQEAKQLAAKLAYLQILSEETSVKSDYLSSGSFATTCESQSNSLVTSTLASESSSEGDFSADTSEINSNSDSLNSSSLLMNGLRNNQRKAKRSLAPRFDLPDMKETKYTVDKRFGMDFKEIELIGSGGFGQVFKAKHRIDGKTYVIKRVKYNNEKAEREVKALAKLDHVNIVHYNGCWDGFDYAPETSDDSLESSDYDPENSKNSSRSKTKCLFIQMEFCDKGTLEQWIEKRRGEKLDKVLALELFEQITKGVDYIHSKKLIHRDLKPSNIFLVDTKQVKIGDFGLVTSLKNDGKRTRSKGTLRYMSPEQISSQDYGKEVDLYALGLILAELLHVCDTAFETSKFFTDLRDGIISDIFDKKEKTLLQKLLSKKPEDRPNTSEILRTLTVWKKSPEKNERHTC [D333A]
disrupting interaction strength | MAGDLSAGFFMEELNTYRQKQGVVLKYQELPNSGPPHDRRFTFQVIIDGREFPEGEGRSKKEAKNAAAKLAVEILNKEKKAVSPLLLTTTNSSEGLSMGNYIGLINRIAQKKRLTVNYEQCASGVHGPEGFHYKCKMGQKEYSIGTGSTKQEAKQLAAKLAYLQILSEETSVKSDYLSSGSFATTCESQSNSLVTSTLASESSSEGDFSADTSEINSNSDSLNSSSLLMNGLRNNQRKAKRSLAPRFDLPDMKETKYTVDKRFGMDFKEIELIGSGGFGQVFKAKHRIDGKTYVIKRVKYNNEKAEREVKALAKLDHVNIVHYNGCWDGFAYDPETSDDSLESSDYDPENSKNSSRSKTKCLFIQMEFCDKGTLEQWIEKRRGEKLDKVLALELFEQITKGVDYIHSKKLIHRDLKPSNIFLVDTKQVKIGDFGLVTSLKNDGKRTRSKGTLRYMSPEQISSQDYGKEVDLYALGLILAELLHVCDTAFETSKFFTDLRDGIISDIFDKKEKTLLQKLLSKKPEDRPNTSEILRTLTVWKKSPEKNERHTC [D331A]
